Test results from patent US20210283212A1 (RA PHARMACEUTICALS, published 2021).
Starred links: 1 amine or outer side, 2 acyl side, 3 side chain; linkers in the order of their positions; H or OH if unused. Positions of bridges follow the written chain, without caps; N, C: chain ends. Non-standard residues stand in square brackets, D forms with d. Primed or numbered codes have the meaning given here. No end group written: not given here. Lys‑C8 = N-ε-caprylic lysine, CCCCCCCC(=O)NCCCC[C@H](N[*:1])C(=O)[*:2]; mXylyl(3) = bridging moiety between the two residues given in brackets; m‑xylyl = bridging moiety between the two residues given in brackets; mXylyl″ = bridging moiety between the two marked residues; Ala(1H-tetrazol-5-yl) = N[C@@H](Cc1nnn[nH]1)C(=O)O; Trp(7-aza) = N[C@@H](Cc1c[nH]c2ncccc12)C(=O)O; mXylyl(4) = bridging moiety between residues; NMeD = CN[C@@H](CC(=O)O)C(=O)O; dPhg = N[C@@H](C(=O)O)c1ccccc1; Chg = N[C@H](C(=O)O)C1CCCCC1; Phg = N[C@H](C(=O)O)c1ccccc1; Tle = CC(C)(C)[C@H](N)C(=O)O; Lys‑C12 = N-ε-lauryl lysine; NMeS = CN[C@@H](CO)C(=O)O; NMeA = CN[C@@H](C)C(=O)O; Nva = CCC[C@H](N)C(=O)O; Sar = CNCC(=O)O

Molecular target: human C5 protein (human, UniProt P01031 19-673; P01031 678-1676)
Test: cell-based or functional assay

Binder | Avg. IC50, human hemolysis assay [nM]
Ac-CVERACD[Tle]Y[Trp(7-aza)]EYP[dPhg][Nva]-NH2 (linker 1-6 via mXylyl(3)) [R3156] | > 10000
Ac-[Nva]C[Phg]T[Trp(7-aza)]EY[NMeS]HC[Nva]P[Nva]-NH2 (cysteine pairing not given here) [R3022] | > 10200
Ac-CAERFCD[Tle]Y[Trp(7-aza)]EYP[Phg]K-NH2 (linker 1-6 via m‑xylyl) [R3161] | 7
Ac-[Nva]C[Phg]T[Trp(7-aza)]AY[NMeS]HC[Nva]-NH2 (linker 2-10 via mXylyl(4)) [R3035] | > 50000
Ac-AC[Phg]T[Trp(7-aza)]EY[NMeS]HC[Nva]-NH2 (linker 2-10 via mXylyl(4)) [R3031] | 1090
Ac-CAERFCD[Tle]Y[Trp(7-aza)]EYP[Phg][Lys‑C8]-NH2 (linker 1-6 via m‑xylyl) [R3166] | 17.5
Ac-[Nva]C[Phg]T[Trp(7-aza)]EY[NMeS]AC[Nva]-NH2 (linker 2-10 via mXylyl(4)) [R3038] | 140
Ac-[Tle]Y[Trp(7-aza)]EYP[Phg][Nva]-NH2 (SMILES CCC[C@H](NC(=O)[C@@H](NC(=O)[C@@H]1CCCN1C(=O)[C@H](Cc1ccc(O)cc1)NC(=O)[C@H](CCC(=O)O)NC(=O)[C@H](Cc1c[nH]c2ncccc12)NC(=O)[C@H](Cc1ccc(O)cc1)NC(=O)[C@@H](NC(C)=O)C(C)(C)C)c1ccccc1)C(N)=O) [R3028] | > 10000
Ac-CVARFCD[Tle]Y[Trp(7-aza)]EYP[dPhg][Nva]-NH2 (linker 1-6 via mXylyl(3)) [R3151] | 165
Ac-[Nva]C[Phg]T[Trp(7-aza)]EY[NMeS]HC[Nva]-NH2 (bridge 2-10) [R3042] | > 100000
Ac-[Nva]CAT[Trp(7-aza)]EY[NMeS]HC[Nva]-NH2 (linker 2-10 via mXylyl(4)) [R3032] | > 10000
Ac-[Nva]C[Phg]T[Trp(7-aza)]EY[NMeA]HC[Nva]-NH2 (linker 2-10 via mXylyl(4)) [R3037] | 276
Ac-CAERFCD[Tle]Y[Trp(7-aza)]EYP[Phg][Lys‑C12]-NH2 (linker 1-6 via m‑xylyl) [R3164] | 36
Ac-CVEAFCD[Tle]Y[Trp(7-aza)]EYP[Phg][Nva]-NH2 (linker 1-6 via mXylyl(3)) [R3153] | 175
Ac-YPYC[Phg][Trp(7-aza)][Tle]E[Nva]NY[Nva]E-NH2 (SMILES CCC[C@H](NC(=O)[C@H](Cc1ccc(O)cc1)NC(=O)[C@H](CC(N)=O)NC(=O)[C@H](CCC)NC(=O)[C@H](CCC(=O)O)NC(=O)[C@@H](NC(=O)[C@H](Cc1c[nH]c2ncccc12)NC(=O)[C@@H](NC(=O)[C@H](CS)NC(=O)[C@H](Cc1ccc(O)cc1)NC(=O)[C@@H]1CCCN1C(=O)[C@H](Cc1ccc(O)cc1)NC(C)=O)c1ccccc1)C(C)(C)C)C(=O)N[C@@H](CCC(=O)O)C(N)=O) [R3023] | > 100000
Ac-CVERFC[Ala(1H-tetrazol-5-yl)][Tle]Y[Trp(7-aza)]EYP[Chg][Nva]-NH2 (linker 1-6 via mXylyl(3)) [R3168] | 7.5
Ac-CVERACD[Tle]Y[Trp(7-aza)]EYP[Phg][Nva]-NH2 (linker 1-6 via mXylyl(3)) [R3155] | 1530

Binder | Avg. IC50, human hemolysis assay [nM]
Ac-C[Tle]Y[Trp(7-aza)]EY[NMeS]HC-NH2 (linker 1-9 via mXylyl″) [R3016] | > 13000
Ac-CVEAFCD[Tle]Y[Trp(7-aza)]EYP[dPhg][Nva]-NH2 (linker 1-6 via mXylyl(3)) [R3154] | 592
Ac-CAERFCD[Tle]Y[Trp(7-aza)]EYP[dPhg]K-NH2 (linker 1-6 via m‑xylyl) [R3162] | 16.5
Ac-[Nva]C[Phg]A[Trp(7-aza)]EY[NMeS]HC[Nva]-NH2 (linker 2-10 via mXylyl(4)) [R3033] | 131
Ac-CVERFCA[Tle]Y[Trp(7-aza)]EYP[Phg][Nva]-NH2 (linker 1-6 via m‑xylyl) [R3157] | 84.5
Ac-[Nva]CYEN[Tle]Y[Trp(7-aza)]EYP[Phg]P-NH2 (SMILES CCC[C@H](NC(C)=O)C(=O)N[C@@H](CS)C(=O)N[C@@H](Cc1ccc(O)cc1)C(=O)N[C@@H](CCC(=O)O)C(=O)N[C@@H](CC(N)=O)C(=O)N[C@H](C(=O)N[C@@H](Cc1ccc(O)cc1)C(=O)N[C@@H](Cc1c[nH]c2ncccc12)C(=O)N[C@@H](CCC(=O)O)C(=O)N[C@@H](Cc1ccc(O)cc1)C(=O)N1CCC[C@H]1C(=O)N[C@H](C(=O)N1CCC[C@H]1C(N)=O)c1ccccc1)C(C)(C)C) [R3003] | 13.9
Ac-[Nva]CYEN[Tle]Y[Trp(7-aza)]EYP[Phg][Nva]C-NH2 (linker 2-14 via mXylyl″) [R3019] | 1320
Ac-C[Phg]T[Trp(7-aza)]EY[NMeS]HC[Nva]P[Nva]-NH2 (linker 1-9 via mXylyl″) [R3014] | 1420
Ac-[Nva]C[Phg]T[Trp(7-aza)]EA[NMeS]HC[Nva]-NH2 (linker 2-10 via mXylyl(4)) [R3036] | > 50000
Ac-[Nva]C[Phg]T[Trp(7-aza)]EY[NMeS]HC[Nva]P[Nva] (bridge 2-10) [R3040] | > 100000
Ac-[Nva]C[Phg]T[Trp(7-aza)]EY[NMeS]HCA-NH2 (linker 2-10 via mXylyl(4)) [R3039] | 240
Ac-CVERFCA[Tle]Y[Trp(7-aza)]EYP[dPhg][Nva]-NH2 (linker 1-6 via m‑xylyl) [R3158] | 327
Ac-CVERFC[NMeD][Tle]Y[Trp(7-aza)]EYP[Chg][Nva]-NH2 (linker 1-6 via m‑xylyl) [R3172] | 12
Ac-[Nva]CYEN[Tle]Y[Trp(7-aza)]EY[Sar][Nva][NMeS]-NH2 (SMILES CCC[C@H](NC(C)=O)C(=O)N[C@@H](CS)C(=O)N[C@@H](Cc1ccc(O)cc1)C(=O)N[C@@H](CCC(=O)O)C(=O)N[C@@H](CC(N)=O)C(=O)N[C@H](C(=O)N[C@@H](Cc1ccc(O)cc1)C(=O)N[C@@H](Cc1c[nH]c2ncccc12)C(=O)N[C@@H](CCC(=O)O)C(=O)N[C@@H](Cc1ccc(O)cc1)C(=O)N(C)CC(=O)N[C@@H](CCC)C(=O)N(C)[C@@H](CO)C(N)=O)C(C)(C)C) [R3001] | 67.2
Ac-[Nva]CYEN[Tle]Y[Trp(7-aza)]ECP[Phg][Nva]-NH2 (linker 2-10 via mXylyl″) [R3018] | > 5730
Ac-C[Phg]T[Trp(7-aza)]EY[NMeS]HC-NH2 (linker 1-9 via mXylyl″) [R3015] | > 3960
MCSERYCEVRWEY-NH2 (linker 2-7 via mXylyl″) [R3020] | 24.6
